Data reported in CN113150152A (UNIV XI AN JIAOTONG, dated 2021).

Tests used:
[1] = molecular target: T1, 人TIM-3重组蛋白 (T cell immunoglobulin domain and mucin domain-3) (human, UniProt Q8TDQ0 22-202, limits assumed); assay: same number as the ELISA EC50 of paragraph 67, here called KD
T1 construct: Recombinant protein coated on 96-well plates; The construct is not described; also called TIM-3蛋白

[2] = molecular target: T1, 人TIM-3重组蛋白 (T cell immunoglobulin …); assay: ELISA, coated TIM-3 recombinant protein, serially diluted nanobody, anti-his detection, GraphPad least-squares fit

Kd [1]: 76 nM
EC50 [2]: 76 nM
B1: NbR2G3 (抗人源T细胞表面抑制性分子TIM-3的特异性纳米抗体) (VHH)
VHH: QVQLVESGGGLVQAGGSLRLSCAASGRTISNYNMGWFRQAPGKEREFAAITRSGGSTYYADSAKGRFTISRDNAKNTVYLQMNSLKPDDTAVYYCDAIPEGLVGRNLGYWGQGTQVTVSS
